Laboratory results as given in patent US8663912B2, “Fluorogenic substrate for ADAMTS13” (Washington University, priority 2011, dated 2014).
* marks the point of attachment. X1 = CC1(C)C(/C=C/C2=C(Cl)C(=C/C=C3/N(CCCCCC(=O)*)c4ccc5cc(S(=O)(=O)O)ccc5c4C3(C)C)/CCC2)=[N+](CCCS(=O)(=O)[O-])c2ccc(N(CCCS(=O)(=O)O)CCCS(=O)(=O)O)cc21; X2 = CC(C)(C)c1cc(/C=C/C=C2\N(CCCS(=O)(=O)O)c3ccc(S(=O)(=O)O)cc3C2(C)CCCC(=O)CCN2C(=O)CC(*)C2=O)c2ccc(N(CCCS(=O)(=O)[O-])CCCS(=O)(=O)O)cc2[o+]1

Experiments:
ADAMTS13 = target: T1, ADAMTS13 (Homo sapiens, UniProt Q76LX8); experiment: ADAMTS13 inhibitor titer assay with FRETS-rVWF71 substrate; format: biochemical; design: from tissue; host or cells: human plasma or serum (pooled normal plasma, healthy donors, TTP patients); conditions: TTP patients with detectable inhibitor; printed 1.4-fold to >5-fold
T1 sequence (Q76LX8 75-1427): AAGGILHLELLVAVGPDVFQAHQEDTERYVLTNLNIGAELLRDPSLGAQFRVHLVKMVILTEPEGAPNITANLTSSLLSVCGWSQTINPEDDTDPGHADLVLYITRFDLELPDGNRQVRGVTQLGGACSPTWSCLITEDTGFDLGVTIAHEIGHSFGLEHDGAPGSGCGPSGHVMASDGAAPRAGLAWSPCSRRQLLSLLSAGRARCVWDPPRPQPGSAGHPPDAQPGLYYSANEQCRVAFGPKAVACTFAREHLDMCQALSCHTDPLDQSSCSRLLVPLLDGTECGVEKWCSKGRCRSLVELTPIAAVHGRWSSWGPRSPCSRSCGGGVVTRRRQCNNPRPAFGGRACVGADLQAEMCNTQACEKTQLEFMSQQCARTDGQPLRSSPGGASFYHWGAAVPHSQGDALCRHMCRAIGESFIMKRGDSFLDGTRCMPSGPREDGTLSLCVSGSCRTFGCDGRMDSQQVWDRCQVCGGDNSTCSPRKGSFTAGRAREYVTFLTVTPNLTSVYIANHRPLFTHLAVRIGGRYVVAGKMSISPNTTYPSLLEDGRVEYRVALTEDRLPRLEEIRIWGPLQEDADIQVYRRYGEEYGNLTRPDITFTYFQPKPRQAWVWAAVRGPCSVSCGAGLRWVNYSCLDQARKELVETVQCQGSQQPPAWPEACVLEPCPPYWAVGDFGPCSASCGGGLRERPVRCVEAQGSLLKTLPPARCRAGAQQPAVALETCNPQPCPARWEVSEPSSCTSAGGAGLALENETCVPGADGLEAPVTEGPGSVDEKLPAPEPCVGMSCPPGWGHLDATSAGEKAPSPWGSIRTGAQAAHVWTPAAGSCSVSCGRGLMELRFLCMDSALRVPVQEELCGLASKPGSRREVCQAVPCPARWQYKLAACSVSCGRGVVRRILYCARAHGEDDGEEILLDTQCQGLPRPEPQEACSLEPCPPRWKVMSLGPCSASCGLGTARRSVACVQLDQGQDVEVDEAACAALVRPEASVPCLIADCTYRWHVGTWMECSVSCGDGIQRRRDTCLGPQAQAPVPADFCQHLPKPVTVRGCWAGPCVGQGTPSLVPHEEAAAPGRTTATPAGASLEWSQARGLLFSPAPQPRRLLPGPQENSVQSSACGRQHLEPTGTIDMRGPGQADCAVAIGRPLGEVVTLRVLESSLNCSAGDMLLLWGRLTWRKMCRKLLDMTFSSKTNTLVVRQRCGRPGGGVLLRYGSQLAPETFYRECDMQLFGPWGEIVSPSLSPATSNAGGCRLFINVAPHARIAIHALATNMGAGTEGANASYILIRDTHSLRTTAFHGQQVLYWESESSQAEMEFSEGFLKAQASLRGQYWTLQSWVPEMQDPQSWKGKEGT
Protocol: Plasma samples with ADAMTS13 protease activity <10% were tested for the presence of an ADAMTS13 inhibitor. Plasma samples were serially diluted two-fold with assay buffer (50 mM HEPES, pH 7.4, 150 mM NaCl, 10 mM CaCl2, and 0.05% Tween-20) to yield 8 dilutions. In duplicate, PNP (50 μL) was mixed with an equal volume (50 μL) of undiluted test plasma and each serially diluted sample. Control conditions included PNP mixed with an equal volume of cleavage buffer. The microplate containing the samples was sealed with adhesive film (Sealplate, Excel Scientific, Victorville, Calif.) and incubated at 37° C. for 1 h. Reaction was initiated by addition of 100 μL of assay buffer containing 2 μM FRETS-rVWF71. Fluorescence emission was monitored and initial reaction rates were determined.
The inhibitor titer was determined by fitting the initial reaction rates to a four parameter logistic model or sigmoidal dose response equation by nonlinear regression (Prism): Rate(D)=[…]/(1+10^((log T−log D)*H)) […]
A fixed amount of ADAMTS13 in PNP (100 μL) was preincubated with serially diluted plasma samples and assayed for ADAMTS13 activity. Reaction rates were analyzed according to a model for competitive sigmoidal dose-response inhibition to obtain the dilution of plasma at which ADAMTS13 activity is decreased by 50%, and the inverse of the dilution is the inhibitor titer (FIG. 7C). […]

[1] = Stability and pH dependence of fluorescence of FRETS-rVWF71; format: physicochemical
Protocol: In these experiments, DyLight 633 maleimide (Thermo Scientific, Waltham, Mass.) 1 mg/100 μL in dimethyl sulfoxide (DMSO) was added dropwise with stirring to peptide VWF71 (10 mg) in ≦2 mL of 100 mM sodium phosphate, pH 7.1, in the dark, and stirred overnight at room temperature. The product DyLight 633-rVWF71 was purified by HPLC on C18 using the TEAA/acetonitrile solvent system as described for the purification of VWF71. DyLight 633-rVWF71 was lyophilized and desalted on a small column of PD-10 in ≦2 mL of 100 mM sodium phosphate, pH 7.9. IRDye QC-1 N-hydroxysuccinimide ester 0.5 mg in 100 μL DMSO was added dropwise with stirring and the solution was stirred overnight at room temperature protected from light. The product FRETS-rVWF71 was purified by reverse phase HPLC, lyophilized, dissolved in ≦0.5 mL of deionized water and applied onto a column (7×230 mm) of Amberlite IR120 sodium form. FRETS-rVWF71 product was eluted with deionized water and lyophilized or concentrated by ultrafiltration to ≧250 μM. The concentration was verified by amino acid analysis (The Protein Chemistry Laboratory, Texas A&M University).

## X1-GQAPNLVYMVTGC(X2)PASDEIRRLPGDIQVVPIGVGPNANVQELERIGWPNAPILIQDFETLPREAPDLVLQR [FRETS-rVWF71]
ADAMTS13
  inhibitor titers higher than with FRETS-VWF73: ≥ 1.4 fold
[1]; excitation 635 nm, uncleaved and fully cleaved substrate, between pH 5 and pH 10
  variation of fluorescence emission at 660 nm with pH: < 7%
[1]; sodium salt
  stability of final product: stable
[1]; working stocks at −20° C. thawed and refrozen repeatedly over several months
  stability on storage: without any change in stability or chemical properties
